# From patent publication US20080139477
# Target: Flag-tagged collagen type III fusion protein (Flag-helix-C-tel-C-pro) expressed from YEpFlagCOLIII1.6 kb (UniProt P02461)
# Chain of UniProt P02461 (P02461 other isoform, or with tags, fused parts or gaps): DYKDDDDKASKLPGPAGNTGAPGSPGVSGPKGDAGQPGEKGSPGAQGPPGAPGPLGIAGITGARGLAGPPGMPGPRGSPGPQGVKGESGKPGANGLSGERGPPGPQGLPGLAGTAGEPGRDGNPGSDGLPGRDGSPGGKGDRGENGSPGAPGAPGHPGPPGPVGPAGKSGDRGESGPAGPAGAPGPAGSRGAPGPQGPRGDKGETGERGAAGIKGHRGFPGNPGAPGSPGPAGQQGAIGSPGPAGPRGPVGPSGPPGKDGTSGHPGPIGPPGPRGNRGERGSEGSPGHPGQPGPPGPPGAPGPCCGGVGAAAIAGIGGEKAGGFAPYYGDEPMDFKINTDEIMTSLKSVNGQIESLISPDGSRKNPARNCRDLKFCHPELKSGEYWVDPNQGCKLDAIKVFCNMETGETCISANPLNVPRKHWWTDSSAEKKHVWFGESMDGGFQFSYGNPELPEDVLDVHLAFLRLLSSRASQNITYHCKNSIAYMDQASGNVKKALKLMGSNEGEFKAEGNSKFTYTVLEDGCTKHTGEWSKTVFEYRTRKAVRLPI
substance,measurement,value
"prolyl-4-hydroxylase (P4H, α2β2) expressed from pYEUra3.2.12β#39α#5",hydroxyproline by amino acid analysis of the 60 kDa band,Amino acid analysis revealed the presence of hydroxyproline in this material from co-transformants ... after induction with 0.2% galactose but no hydroxyproline was detected with protein from control samples
